Positions count from the first letter of the chain named. Names and notes keep the numbering of the source. Values joined by “and” are separate entries in the source; they are usually repeats but may differ in a detail not shown here. Equal values may be shown once.
T1: His6-Ig 10–11 (NOMO1 Ig-like domains 10–11) (human)
T1 chain: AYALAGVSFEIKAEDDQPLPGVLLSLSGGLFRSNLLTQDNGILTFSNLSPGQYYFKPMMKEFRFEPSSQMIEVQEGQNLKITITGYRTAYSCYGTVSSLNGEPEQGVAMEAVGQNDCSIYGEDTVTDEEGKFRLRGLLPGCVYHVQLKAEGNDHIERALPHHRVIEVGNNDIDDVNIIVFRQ

T2: His6-Ig 1–2 (NOMO1 Ig-like domains 1–2) (human)
T2 chain: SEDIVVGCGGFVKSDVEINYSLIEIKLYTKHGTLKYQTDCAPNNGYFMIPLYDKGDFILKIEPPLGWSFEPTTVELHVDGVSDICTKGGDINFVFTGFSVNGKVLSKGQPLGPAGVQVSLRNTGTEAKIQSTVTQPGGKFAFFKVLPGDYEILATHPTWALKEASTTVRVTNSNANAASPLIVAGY

B1: His6-Ig 1–2 (NOMO1 Ig-like domains 1–2) (domain or fragment)
chain: T2 chain
modifications: N-terminal His6 tag omitted; limits not given, taken from signal peptide end to the Ig 2/Ig 3 boundary N-terminal His6 tag omitted; limits not given, set from Ig fold boundaries and the ~20 kD size of Ig 10-11
B2: His6-Ig 10–11 (NOMO1 Ig-like domains 10–11) (domain or fragment)
chain: T1 chain
modifications: N-terminal His6 tag omitted; limits not given, set from Ig fold boundaries and the ~20 kD size of Ig 10-11 / N-terminal His6 tag omitted; limits not given, taken from signal peptide end to the Ig
B3: FL WT NOMO (NOMO1^WT-FLAG) (natural protein, human, UniProt Q15155 32-1222, looked up)
chain: SEDIVVGCGGFVKSDVEINYSLIEIKLYTKHGTLKYQTDCAPNNGYFMIPLYDKGDFILKIEPPLGWSFEPTTVELHVDGVSDICTKGGDINFVFTGFSVNGKVLSKGQPLGPAGVQVSLRNTGTEAKIQSTVTQPGGKFAFFKVLPGDYEILATHPTWALKEASTTVRVTNSNANAASPLIVAGYNVSGSVRSDGEPMKGVKFLLFSSLVTKEDVLGCNVSPVPGFQPQDESLVYLCYTVSREDGSFSFYSLPSGGYTVIPFYRGERITFDVAPSRLDFTVEHDSLKIEPVFHVMGFSVTGRVLNGPEGDGVPEAVVTLNNQIKVKTKADGSFRLENITTGTYTIHAQKEHLYFETVTIKIAPNTPQLADIIATGFSVCGQISIIRFPDTVKQMNKYKVVLSSQDKDKSLVTVETDAHGSFCFKAKPGTYKVQVMVPEAETRAGLTLKPQTFPLTVTNRPMMDVAFVQFLASVSGKVSCLDTCGDLLVTLQSLSRQGEKRSLQLSGKVNAMTFTFDNVLPGKYKISIMHEDWCWKNKSLEVEVLEDDMSAVEFRQTGYMLRCSLSHAITLEFYQDGNGRENVGIYNLSKGVNRFCLSKPGVYKVTPRSCHRFEQAFYTYDTSSPSILTLTAIRHHVLGTITTDKMMDVTVTIKSSIDSEPALVLGPLKSVQELRREQQLAEIEARRQEREKNGNEEGEERMTKPPVQEMVDELQGPFSYDFSYWARSGEKITVTPSSKELLFYPPSMEAVVSGESCPGKLIEIHGKAGLFLEGQIHPELEGVEIVISEKGASSPLITVFTDDKGAYSVGPLHSDLEYTVTSQKEGYVLTAVEGTIGDFKAYALAGVSFEIKAEDDQPLPGVLLSLSGGLFRSNLLTQDNGILTFSNLSPGQYYFKPMMKEFRFEPSSQMIEVQEGQNLKITITGYRTAYSCYGTVSSLNGEPEQGVAMEAVGQNDCSIYGEDTVTDEEGKFRLRGLLPGCVYHVQLKAEGNDHIERALPHHRVIEVGNNDIDDVNIIVFRQINQFDLSGNVITSSEYLPTLWVKLYKSENLDNPIQTVSLGQSLFFHFPPLLRDGENYVVLLDSTLPRSQYDYILPQVSFTAVGYHKHITLIFNPTRKLPEQDIAQGSYIALPLTLLVLLAGYNHDKLIPLLLQLTSRLQGVRALGQAASDNSGPEDAKRQAKKQKTRRT
notes: NOMO1 (nodal modulator 1), human, full length; Results and legend call it NOMO-FLAG, the methods Flag-NOMO^WT: the end of the tag is not clear; also called WT NOMO-FLAG; Flag-NOMO^WT; source: Expi293F, transfected, purified (anti-FLAG M2 beads, FLAG peptide elution, SEC) in DDM
B4: NOMOr^4-Mut-FLAG (FL NOMO1 K66E, D70K, D121K, K931E) (natural protein, human, UniProt Q15155 32-1222, looked up)
chain: B3 chain with K35E, D39K, D90K, K900E
notes: NOMO1, human, full length, four charge-reversal mutations at the Ig 1/10/11 interface; Results and legend call it -FLAG, the methods Flag-NOMO^4-Mut: the end of the tag is not clear; also called NOMO^4Mut-FLAG; Flag-NOMO^4-Mut; source: Expi293F, transfected, purified (anti-FLAG M2 beads, FLAG peptide elution, SEC) in DDM

Tests used:
[1] = biological target: T1, His6-Ig 10–11 (NOMO1 Ig-like domains …); assay: ITC
[2] = biological target: T2, His6-Ig 1–2 (NOMO1 Ig-like domains 1–2); assay: ITC; VP-ITC, 25°C; 300 µM His6-Ig 10–11 injected from the syringe into the cell with 20 µM His6-Ig 1–2 or His6-Ig 1–2^3-Mut; 50 mM Tris-HCl pH 7.5, 100 mM NaCl, 5 mM MgCl2, 5 mM CaCl2; n = 3; conditions: both partners purified
[3] = biological target: the molecule itself; assay: SEC-MALS; room temperature; 50 mM MES pH 6.0, 150 mM KCl, 5 mM CaCl2, 5 mM MgCl2, 2% glycerol, 0.05% DDM; 1–1.5 mg/ml; molar mass corrected for detergent

Binder	stoichiometry N [3]	also measured
B1		Kd [1]: 2800 nM and 1400 nM and 1300 nM
B2		Kd [2]: 1830 ± 840 nM
B3	2	
B4	2	

Reference: publication PMC12262048, “Nodal modulator (NOMO) is a force-bearing transmembrane protein required for muscle differentiation” (The Journal of Cell Biology, 2025)
